According to US12365710B2, “HMGB1 protein derivatives for the removal of biofilms” (RESEARCH INSTITUTE AT NATIONWIDE CHILDREN'S HOSPITAL, priority 2018, dated 2025):
Where two headings read alike, the source gives them in different places.

Test system: B. cenocepacia
Assay type: in vivo, C57BL/6 mice
Conditions: for Bc CFU in lung tissue / Bc CFU in BAL: 10^7 CFU Bc i.t. with 0.2 nmol protein simultaneously, 18 h; for Bc CFU in lung tissue: data not shown, P<0.05; for Bc CFU in BAL: vs control mice; for aggregate biofilm formation / development in vivo: lung model, 0.2 nmol given simultaneously with Bc; for lung damage, H&E histology: mouse, in vivo
Description: FIGS. 7A-7G: HMGB1 promotes clearance of S. cenocepaca from mice without inducing sepsis. C57BL/6 mice were challenged with 10^7 CFU intratracheally, and either simultaneously (prevention) or 24 h later (treatment) received 0.2 nmol of HMGB1 valiant. (FIG. 7A) Aggregates of B. cenocepacia were visible by fluorescence microscopy in lung sections probed with an α-B. cenocepacia antibody. For prevention, (FIG. 7B) bronchoalveolar lavage (BAL) collected 18 h post-inoculation (hpi) was analyzed for CFU. (FIG. 7C) Neutrophils in BAL were quantified by differential cell counting. (FIG. 7D) Lung tissue collected 72hpi was fixed, embedded, sectioned, and stained with hematoxylin & eosin (10× magnification). For treatment, 72hpi (FIG. 7E) CFUs were quantified in BAL. (FIG. 7F) Neutrophil recruitment was analyzed 24 h after intraperitoneal (i.p.) administration of HMGB1 valiants by fluorescence-activated cell sorting of peritoneal lavage stained with α-CD45, α-CD11b, and αLy-6G. (FIG. 7G) Serum TNF-α. was measured by ELISA in mice injected i.p. with 0.2 nmol HMGB1 valiants, 5 mg/kg LPS, or both. LoD: limit of detection. Bars represent SD. *P<0.05.
Applicant's novel approach of using a non-antimicrobial agent like HMGB1 protein and its variants for the treatment of biofilm related infections epitomizes a radical departure from classic therapeutic concepts. Full length HMGB1 and the smallest variant tested to date with the greatest disruption activity found in vitro, B Box and the modified B Box (mB Box) where the cysteine at position 106 was mutated to a serine to abrogate its inflammatory inducing ability, were tested in vivo for biofilm disruption and inflammatory activity (FIG. 7).
rHMGB1 and mHMGB1 disrupt biofilms in two distinct animal models but the inflammatory response is strongly attenuated with Cys to Ser mutations: Applicant tested both rHMGB1 and mHMGB1 for their ability to treat middle ear infection and the corresponding inflammatory response using a well-established chinchilla model of experimental OM due to NTHI49,67,68 wherein adhered mucosal biofilm formation plays a key role in pathogenesis (FIG. 8A). The middle ear of mixed sex, outbred adult chinchillas were inoculated with 1000 CFU NTHI by transbullar injection. At days 4 and 5 post-challenge, at which time there is abundant biofilm present in the middle ear space, […] of rHMGB1, mHMGB1, or diluent was delivered directly to the middle ear (2 total treatments). On day 6, animals were sacrificed and middle ears were imaged and blindly scored for biofilm that remained (FIG. 8A) and mucosal inflammation (FIG. 8B). […] In contrast, MEFs from mHMGB1-treated animals had increased anti-inflammatory cytokines [IL-4 (2-fold), IL-10 (5-fold)] […] Next, Applicant determined whether rHMGB1 or mHMGB1 could prevent or […] biofilm development. For prevention, adult C57BL/6 mice were challenged with 10^7 CFU of Bc intratracheally (i.t.), and 0.2 nmol of rHMGB1 or mHMGB1 was added simultaneously. After 18 h, mice were euthanized, and bronchoalveolar lavage (BAL) and lungs were collected. Bc formed aggregates that were readily visible in lung sections probed with Bc antibody (FIG. 7A). Tissue was homogenized and CFUs were enumerated. […] This same animal model was then used to investigate lung damage 72 h post-challenge with Bc and administration of rHMGB1 or mHMGB1. Lungs were collected and tissue was fixed, embedded in paraffin, sectioned, and stained with Haematoxylin and Eosin (H&E). […] Next, Applicant assessed the ability of rHMGB1 and mHMGB1 to treat established Bc infection. Mice were challenged as above and 0.2 nmol rHMGB1 or mHMGB1 was administered 24 h later. 48 h after treatment, mice were euthanized and BAL and lungs were collected and processed as above. […] To further validate the reduced pro-inflammatory activity of mHMGB1, Applicant used an in vivo model of chemotaxis to determine relative ability to recruit neutrophils70,71. […]

Row | Molecule | Bc CFU in lung tissue | Bc CFU in BAL | aggregate biofilm formation / development in vivo | lung damage, H&E histology | inflammatory response in the lung model (0.2 nmol) | aggregate biofilm formation / development in vivo (listed as B Box) | aggregate biofilm formation / development in vivo (listed as B box)
1 | rHMGB1: tagless human recombinant full length HMGB1 (1-215) expressed in E. coli | significantly fewer | significantly fewer Bc in BAL | prevent biofilm formation in vivo | severe inflammation and an increased neutrophil response |  |  | 
2 | mHMGB1: engineered C45S variant of full length rHMGB1 that mimics the reduced form of HMGB1 (protein, UniProt P09429 1-215, looked up, variant C45S, full-length, engineered C45S variant of full length rHMGB1 that mimics the reduced form of HMGB1) MGKGDPKKPRGKMSSYAFFVQTCREEHKKKHPDASVNFSEFSKKSSERWKTMSAKEKGKFEDMAKADKARYEREMKTYIPPKGETKKKFKDPNAPKRPPSAFFLFCSEYRPKIKGEHPGLSIGDVAKKLGEMWNNTAADDKQPYEKKAAKLKEKYEKDIAAYRAKGKPDAAKKGVVKAEKSKKKKEEEEDEEDEEDEEEEEDEEDEDEEEDDDDE | significantly fewer | significantly fewer Bc in BAL | inhibited aggregate biofilm formation | more closely resembled uninfected mouse lungs | did not enhance the inflammatory response |  | 
3 | B-linker Box: HMGB1 B Box with N- and C-terminal linker (80-179; 80 to 176 in b258), 97 amino acid (protein, UniProt P09429 80-179, looked up, fragment) PPKGETKKKFKDPNAPKRPPSAFFLFCSEYRPKIKGEHPGLSIGDVAKKLGEMWNNTAADDKQPYEKKAAKLKEKYEKDIAAYRAKGKPDAAKKGVVKAE |  | decreased CFU in BAL |  |  |  | inhibit biofilm development in vivo | prevent biofilm formation in vivo
